Test results as given in US20170037146A1 (GENOR BIOPHARMA, published 2017).

Each binder was assayed against T1, Human HER2 antigen (Sino Biological Inc., catalog number 10004-H08H) (human, UniProt P04626 23-652) (assay: ELISA on coated human HER2 antigen, anti-human IgG Fc-HRP detection).
T1 construct: Bought antigen coated on the ELISA plate
Description: Human HER2 antigen (purchased from Sino Biological Inc., catalog number: 10004-H08H) was diluted to 1 μg/ml using PBS buffer, and added to an ELISA plate at 100 μl/well to perform coating at 4° C. overnight. The plate was washed with PBST for four times, then 5% BSA (purchased from Amresco, USA, catalog number: 0332-100g, the solution being PBS) was added at 300 μl/well to perform blocking at room temperature for 1 hour. […] Each of the dilutions was added to an ELISA plate at 100 μl/well and incubated at room temperature for 1 hour. The plate was washed with PBST for four times, then HRP-labeled goat anti-human IgG Fc antibody (purchased from CalBiochem Inc., USA, catalog number: AP113A-K) was diluted at 1:10000 with PBS buffer, and added to the ELISA plate at 100 μl/well to perform incubation at room temperature for 1 hour. The plate was washed with PBST for four times, then a solution of 3,3′,5,5′-tetramethylbenzidine substrate (purchased from Tiangen Co., Ltd., catalog number: PA107-01) was added at 100 μl/well to perform incubation at room temperature for 15 minutes for visualization. A stop solution (1 M sulfuric acid) was added at 50 μl/well, and absorbance value was read at 450/630 nm wavelength on an M5 multi-functional ELISA plate (Molecular Devices Inc., USA).

| binding result | Binder |
| --- | --- |
| binds | GB235-019 recombinant full-length IgG1 isotype antibody (wild type) (antibody, V domains shown, N-linked glycan at Asn73 (Fab framework region 3), Full-length IgG1 expressed in FreeStyle 293F cells; Derived from scFv clone WG1-019; also called GB235-019WT; GB235-019 wild-type antibody) VH: EVQLVQSGAEVKKPGAPVKVSCKASGYTFTSYDINWVRQATGQGLEWMGWMNPNSGNTGYAQKFQGRVTMTRNTSISTAYMELSSLRSEDTAVYYCARGYYLSRGDFWGQGTLVTVSS VL: DIQMTQSPSSVSASVGDRVTITCRASQGISSWLAWYQQKPGKAPKLLIYAASSLQSGVPSRFSGSGSGTDFTLTISSLQPEDFATYYCQQANSFPLTFGGGTKVEIKR |
| binds | GB235-019S75A mutated antibody (antibody, human IgG1, kappa, V domains shown, full-length IgG1; also called GB235-019575A) VH: EVQLVQSGAEVKKPGAPVKVSCKASGYTFTSYDINWVRQATGQGLEWMGWMNPNSGNTGYAQKFQGRVTMTRNTAISTAYMELSSLRSEDTAVYYCARGYYLSRGDFWGQGTLVTVSS VL: DIQMTQSPSSVSASVGDRVTITCRASQGISSWLAWYQQKPGKAPKLLIYAASSLQSGVPSRFSGSGSGTDFTLTISSLQPEDFATYYCQQANSFPLTFGGGTKVEIKR |
| binds | GB235-019N73Q mutated antibody (antibody, human IgG1, kappa, V domains shown, full-length IgG1) VH: EVQLVQSGAEVKKPGAPVKVSCKASGYTFTSYDINWVRQATGQGLEWMGWMNPNSGNTGYAQKFQGRVTMTRQTSISTAYMELSSLRSEDTAVYYCARGYYLSRGDFWGQGTLVTVSS VL: DIQMTQSPSSVSASVGDRVTITCRASQGISSWLAWYQQKPGKAPKLLIYAASSLQSGVPSRFSGSGSGTDFTLTISSLQPEDFATYYCQQANSFPLTFGGGTKVEIKR |
| binds | GB235-019N73D mutated antibody (antibody, human IgG1, kappa, V domains shown, full-length IgG1) VH: EVQLVQSGAEVKKPGAPVKVSCKASGYTFTSYDINWVRQATGQGLEWMGWMNPNSGNTGYAQKFQGRVTMTRDTSISTAYMELSSLRSEDTAVYYCARGYYLSRGDFWGQGTLVTVSS VL: DIQMTQSPSSVSASVGDRVTITCRASQGISSWLAWYQQKPGKAPKLLIYAASSLQSGVPSRFSGSGSGTDFTLTISSLQPEDFATYYCQQANSFPLTFGGGTKVEIKR |
